# Reference: article PMC4847949 (Journal of molecular biology, 2016)
# B1: Lsm 169N (MBP fusion) (domain or fragment, human, UniProt P83369 1-169, looked up)
# chain: MEERERGARSAGAGSPARPPSPRLDVSSDSFDPLLALYAPRLPPIPYPNAPCFNNVAEYESFLRTGVRGGGRGRGRARGAAAGSGVPAAPGPSGRTRRRPDAPAPDPERIQRLRRLMVAKEEGDGAAGAGRRGPGRSRKAPRNVLTRMPLHEGSPLGELHRCIREGVKV
# B2: FLASH 159N (domain or fragment, human, UniProt Q9UKL3 1-159, looked up)
# chain: MAADDDNGDGTSLFDVFSASPLKNNDEGSLDIYAGLDSAVSDSASKSCVPSRNCLDLYEEILTEEGTAKEATYNDLQVEYGKAQLQMKELMKKFKEIQTQNFSLINENQSLKKNISALIKTARVEINRKDEEISNLHQRLSEFPHFRNNHKTARTFDTV
# B3: FLASH 138N (domain or fragment, human, UniProt Q9UKL3 29-138, looked up)
# chain: SLDIYAGLDSAVSDSASKSCVPSRNCLDLYEEILTEEGTAKEATYNDLQVEYGKAQLQMKELMKKFKEIQTQNFSLINENQSLKKNISALIKTARVEINRKDEEISNLHQ
# Key:
# MiniFLASH = target: T1, MiniFLASH (human, UniProt Q9UKL3 1-138; Q9UKL3 1931-1982); test: HDX-MS
# T1 sequence (looked up): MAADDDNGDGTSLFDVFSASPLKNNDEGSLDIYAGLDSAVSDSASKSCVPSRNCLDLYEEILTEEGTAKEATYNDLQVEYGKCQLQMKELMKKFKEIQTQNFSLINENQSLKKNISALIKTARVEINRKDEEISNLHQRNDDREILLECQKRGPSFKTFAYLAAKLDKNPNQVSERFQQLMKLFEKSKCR
# Lsm 169N (MBP fusion) = target: B1; test: HDX-MS
binder,measurement,setting,value
B1,binding result,MiniFLASH,binds
B2,binding result,Lsm 169N (MBP fusion),binds
B3,binding result,Lsm 169N (MBP fusion),binds
